One block for each substance: values may come before it.
What was measured:
Assay in all cases: GST pull-down (autoradiography, quantified)
[1] = target: radiolabeled myc-Sequoia-WT; conditions: percentage binding relative to 10% of the input; 3 independent experiments; parent: est. 25; read off a plot
[2] = target: radiolabeled GFP-Sequoia-WT; conditions: parent: est. 25; read off a plot
[3] = target: GST-Atg8a-LDS mutant (Y49A) (UniProt Q9W2S2); conditions: parent: est. 25, read off a plot
[4] = target: GST-Atg8a K46Q (UniProt Q9W2S2); conditions: percentage binding relative to 10% of the input; 3 independent experiments; parent: est. 25; read off a plot
[5] = target: GST-Atg8a K46Q Y49A; conditions: percentage binding relative to 10% of the input; 3 independent experiments; parent: est. 25; read off a plot
[6] = target: GST-Atg8a K47Q (UniProt Q9W2S2); conditions: percentage binding relative to 10% of the input; 3 independent experiments; parent: est. 25; read off a plot
[7] = target: GST-Atg8a K48Q (UniProt Q9W2S2); conditions: percentage binding relative to 10% of the input; 3 independent experiments; parent: est. 25; read off a plot
[8] = target: GST-Atg8a-WT (UniProt Q9W2S2); conditions: parent: est. 25, read off a plot
[9] = percentage binding relative to 10% of the input, 3 independent experiments

GST-Atg8a-WT, sequence (Q9W2S2 entry or part of it): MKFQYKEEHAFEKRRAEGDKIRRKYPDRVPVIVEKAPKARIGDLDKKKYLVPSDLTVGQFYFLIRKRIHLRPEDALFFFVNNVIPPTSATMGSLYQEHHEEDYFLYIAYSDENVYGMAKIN
GST-Atg8a-LDS mutant (Y49A), sequence (Q9W2S2 entry or part of it Y49A | Y49A): as the sequence (Q9W2S2 entry or part of it) above, with Y49A counted along it
GST-Atg8a K47Q, sequence (Q9W2S2 entry or part of it K47Q | K47Q): as the sequence (Q9W2S2 entry or part of it) above, with K47Q counted along it
GST-Atg8a K48Q, sequence (Q9W2S2 entry or part of it K48Q | K48Q): as the sequence (Q9W2S2 entry or part of it) above, with K48Q counted along it
GST-Atg8a K46Q, sequence (Q9W2S2 entry or part of it K46Q | K46Q): as the sequence (Q9W2S2 entry or part of it) above, with K46Q counted along it

response [1]: 3.6 % Binding
Substance: GST-Atg8a-WT (from UniProt Q9W2S2) K46Q; Y49A

response [1]: 24 % Binding
Substance: GST-Atg8a-WT (from UniProt Q9W2S2) K47Q

response [1]: 12 % Binding
Substance: GST-Atg8a-WT (from UniProt Q9W2S2) K48Q

response [4]: 18 % Binding
Substance: m11; m1 Sequoia:Y313A; Sequoia:I316A; Atg8a:K46Q

response [5]: 3.2 % Binding
Substance: m11; m1 Sequoia:Y313A; Sequoia:I316A; Atg8a:K46Q; Atg8a:Y49A

response [7]: 8 % Binding
Substance: m11; m1 Sequoia:Y313A; Sequoia:I316A; Atg8a:K48Q

response [8]: 14 % of binding
Substance: radiolabeled GFP-Sequoia-WT Y313A; I316A

The remaining lines, values behind:

Substance: GST-Atg8a-WT (from UniProt Q9W2S2) K46Q
response [1]: 25 % Binding

Substance: GST-Atg8a-WT (from UniProt Q9W2S2) Y49A
response [1]: 2.7 % Binding
response [2]: 8 % of binding

Substance: m9; m1 Sequoia:Y313A; Sequoia:I316A; Atg8a:Y49A
response [3]: 5.6 % of binding

Substance: m11; m1 Sequoia:Y313A; Sequoia:I316A; Atg8a:K47Q
response [6]: 12 % Binding

Substance: m11; m1 Sequoia:Y313A; Sequoia:I316A; Atg8a:Y49A
response [3, 9]: 2.9 % Binding

Substance: radiolabeled myc-Sequoia-WT Y313A; I316A
response [8, 9]: 14 % Binding

Source: PMC7262597
